We go through one molecule from paper PMC3352918, “Mechanism of Nucleic Acid Unwinding by SARS-CoV Helicase” (PLoS ONE, 2012).

This test has as its target T1, GST-nsp13 (Glutathione S-Transferase-tagged nsp13 of SARS-CoV) (SARS-CoV, UniProt P0C6X7 5302-5902).
T1 construct: also called SARS-CoV helicase; non-structural protein 13; not shown: GST, N-terminal, kept
Kind of test: pull-down. The settings on record: both partners purified.

B1: nsp12-H6 (C-terminal hexahistidine containing nsp12, SARS-CoV RNA-dependent RNA polymerase) (enzyme)
chain: SADASTFLNRVCGVSAARLTPCGTGTSTDVVYRAFDIYNEKVAGFAKFLKTNCCRFQEKDEEGNLLDSYFVVKRHTMSNYQHEETIYNLVKDCPAVAVHDFFKFRVDGDMVPHISRQRLTKYTMADLVYALRHFDEGNCDTLKEILVTYNCCDDDYFNKKDWYDFVENPDILRVYANLGERVRQSLLKTVQFCDAMRDAGIVGVLTLDNQDLNGNWYDFGDFVQVAPGCGVPIVDSYYSLLMPILTLTRALAAESHMDADLAKPLIKWDLLKYDFTEERLCLFDRYFKYWDQTYHPNCINCLDDRCILHCANFNVLFSTVFPPTSFGPLVRKIFVDGVPFVVSTGYHFRELGVVHNQDVNLHSSRLSFKELLVYAADPAMHAASGNLLLDKRTTCFSVAALTNNVAFQTVKPGNFNKDFYDFAVSKGFFKEGSSVELKHFFFAQDGNAAISDYDYYRYNLPTMCDIRQLLFVVEVVDKYFDCYDGGCINANQVIVNNLDKSAGFPFNKWGKARLYYDSMSYEDQDALFAYTKRNVIPTITQMNLKYAISAKNRARTVAGVSICSTMTNRQFHQKLLKSIAATRGATVVIGTSKFYGGWHNMLKTVYSDVETPHLMGWDYPKCDRAMPNMLRIMASLVLARKHNTCCNLSHRFYRLANECAQVLSEMVMCGGSLYVKPGGTSSGDATTAYANSVFNICQAVTANVNALLSTDGNKIADKYVRNLQHRLYECLYRNRDVDHEFVDEFYAYLRKHFSMMILSDDAVVCYNSNYAAQGLVASIKNFKAVLYYQNNVFMSEAKCWTETDLTKGPHEFCSQHTMLVKQGDDYVYLPYPDPSRILGAGCFVDDIVKTDGTLMIERFVSLAIDAYPLTKHPNQEYADVFHLYLQYIRKLHDELTGHMLDMYSVMLTNDNTSRYWEPEFYEAMYTPHTVLQ
notes: also called SARS-CoV polymerase; SARS-CoV RdRp
Take B1: the binding result was “binds”.
